Test results: patent US20260167699A1 (Chugai, published 2026)

T1: FcγRIIa(H) extracellular domain, C-terminal His tag (human, UniProt P12318 34-217)
T1 construct: extracellular domain; Allotype H131; also called 2aH
T1 sequence: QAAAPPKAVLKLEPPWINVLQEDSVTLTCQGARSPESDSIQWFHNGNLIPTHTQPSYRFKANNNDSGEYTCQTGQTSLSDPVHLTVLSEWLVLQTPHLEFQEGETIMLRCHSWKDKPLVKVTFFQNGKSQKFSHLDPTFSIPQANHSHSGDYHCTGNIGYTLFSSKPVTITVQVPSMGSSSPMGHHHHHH

T2: FcγRIIb extracellular domain, C-terminal His tag (human, UniProt P31994 43-217)
T2 construct: extracellular domain; also called 2b
T2 sequence: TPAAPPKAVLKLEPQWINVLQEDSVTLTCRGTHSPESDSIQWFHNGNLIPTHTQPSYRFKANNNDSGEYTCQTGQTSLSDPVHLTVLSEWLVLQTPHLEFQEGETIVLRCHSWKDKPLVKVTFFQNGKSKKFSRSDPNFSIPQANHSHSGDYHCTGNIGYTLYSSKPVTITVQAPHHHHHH

T3: FcγRIIa(R) extracellular domain, C-terminal His tag (human, UniProt P12318 34-217)
T3 construct: extracellular domain; Allotype R131; also called 2aR
T3 sequence: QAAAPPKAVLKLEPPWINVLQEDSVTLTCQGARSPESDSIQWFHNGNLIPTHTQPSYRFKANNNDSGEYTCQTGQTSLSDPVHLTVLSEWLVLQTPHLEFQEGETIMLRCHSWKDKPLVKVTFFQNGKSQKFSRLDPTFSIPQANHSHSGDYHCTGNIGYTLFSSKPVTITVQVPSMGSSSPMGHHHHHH


Legend:
Experiment in all cases: SPR (Biacore); binding relative to GpH7-A5/GpH7-B3/GpL16-k0 x100;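 note: antibodies captured on a chip surface, soluble FcγR flowed over in HBS-EP+ running buffer at 25 °C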
[1] = molecular target: T1, FcγRIIa(H) extracellular domain, …
Method: (§1) The antibody of interest was analyzed for its interaction with FcγR using a BiaCore™ T100, BiaCore™ A100, or BiaCore™ 4000 surface plasmon resonance system (GE Healthcare Japan Corp.). The running buffer used was HBS-EP+ (GE Healthcare Japan Corp.). The assay temperature was set to 25° C. The sensor chips used were: a chip prepared by immobilizing antigenic peptides onto Series S Sensor Chip CM5 (GE Healthcare Japan Corp.) by the amine coupling method; a chip prepared by immobilizing antigenic peptides biotinylated in advance onto Series S Sensor Chip SA (certified) (GE Healthcare Japan Corp.) through their interaction; a chip prepared by immobilizing protein L (ACTIGEN, BioVision, Inc.) onto Series S Sensor Chip CM5 (GE Healthcare Japan Corp.); and a chip prepared by immobilizing protein A/G (Thermo Fisher Scientific K.K.) onto Series S Sensor Chip CM5 (GE Healthcare Japan Corp.). The antibody of interest was captured onto any of these chips and allowed to interact with FcγR diluted with a running buffer. The antibody captured on the chip was washed off through the reaction of 10 mM glycine-HCl (pH 1.5) to regenerate the chip, which was repetitively used.

[2] = molecular target: T2, FcγRIIb extracellular domain, …
Method: as §1

[3] = molecular target: T4, FcγRIIIa extracellular domain, C-terminal His tag (human, UniProt P08637 17-208)
T4 construct: extracellular domain; also called 3a
Method: as §1

[4] = molecular target: T5, FcγRIa extracellular domain, C-terminal His tag (human, UniProt P12314 16-292)
T5 construct: extracellular domain; also called 1a
Method: as §1

[5] = molecular target: T3, FcγRIIa(R) extracellular domain, …
Method: as §1

T5 sequence (P12314 other isoform, or with tags, fused parts or gaps): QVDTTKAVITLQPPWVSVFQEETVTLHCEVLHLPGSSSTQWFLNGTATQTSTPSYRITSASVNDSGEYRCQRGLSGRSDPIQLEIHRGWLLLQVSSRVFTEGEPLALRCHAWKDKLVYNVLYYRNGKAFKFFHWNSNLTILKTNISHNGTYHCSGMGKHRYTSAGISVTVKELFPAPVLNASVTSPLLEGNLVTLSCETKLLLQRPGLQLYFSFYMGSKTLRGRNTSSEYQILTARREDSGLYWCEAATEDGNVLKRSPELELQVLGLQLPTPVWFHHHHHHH
T4 sequence (P08637 other isoform, or with tags, fused parts or gaps): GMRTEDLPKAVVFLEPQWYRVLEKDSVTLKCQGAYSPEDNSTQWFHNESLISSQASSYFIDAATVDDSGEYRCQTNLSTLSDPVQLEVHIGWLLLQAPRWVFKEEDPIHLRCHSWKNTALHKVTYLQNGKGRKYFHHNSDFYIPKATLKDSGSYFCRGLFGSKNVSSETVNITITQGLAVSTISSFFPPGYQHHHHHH

| Binder | He/Con 2aH [1] | He/Con 2b [2] | He/Con 3a [3] | He/Con 1a [4] | He/Con 2aR [5] |
| --- | --- | --- | --- | --- | --- |
| GpH7-A5/GpH7-B3 variant A330_11K/GpL16-k0 (antibody, human IgG1, kappa, He Ab: anti-glypican 3 IgG1 heterodimer, only the GpH7-B3 chain mutated; position in EU numbering; also called He Ab) heavy 1: not shown heavy 2: not shown light: DIVMTQSPLSLPVTPGEPASISCQASESLVHSNRNTYLHWYLQKPGQSPQLLIYKVSNRFSGVPDRFSGSGSGTDFTLKISRVEAEDVGVYYCSQNTHVPPTFGQGTKVEIERTVAAPSVFIFPPSDEQLKSGTASVVCLLNNFYPREAKVQWKVDNALQSGNSQESVTEQDSKDSTYSLSSTLTLSKADYEKHKVYACEVTHQGLSSPVTKSFNRGEC | 118% | 107% | 91.8% | 107% | 124% |
| GpH7-A5/GpH7-B3 variant A330_16H/GpL16-k0 (antibody, human IgG1, kappa, He Ab: anti-glypican 3 IgG1 heterodimer, only the GpH7-B3 chain mutated; position in EU numbering; also called He Ab) heavy 1: not shown heavy 2: not shown light: DIVMTQSPLSLPVTPGEPASISCQASESLVHSNRNTYLHWYLQKPGQSPQLLIYKVSNRFSGVPDRFSGSGSGTDFTLKISRVEAEDVGVYYCSQNTHVPPTFGQGTKVEIERTVAAPSVFIFPPSDEQLKSGTASVVCLLNNFYPREAKVQWKVDNALQSGNSQESVTEQDSKDSTYSLSSTLTLSKADYEKHKVYACEVTHQGLSSPVTKSFNRGEC | 110% | 99% | 102% | 109% | 111% |
| GpH7-A5/GpH7-B3 variant A330_14T/GpL16-k0 (antibody, human IgG1, kappa, He Ab: anti-glypican 3 IgG1 heterodimer, only the GpH7-B3 chain mutated; position in EU numbering; also called He Ab) heavy 1: not shown heavy 2: not shown light: DIVMTQSPLSLPVTPGEPASISCQASESLVHSNRNTYLHWYLQKPGQSPQLLIYKVSNRFSGVPDRFSGSGSGTDFTLKISRVEAEDVGVYYCSQNTHVPPTFGQGTKVEIERTVAAPSVFIFPPSDEQLKSGTASVVCLLNNFYPREAKVQWKVDNALQSGNSQESVTEQDSKDSTYSLSSTLTLSKADYEKHKVYACEVTHQGLSSPVTKSFNRGEC | 102% | 87.9% | 85.8% | 108% | 107% |
| GpH7-A5/GpH7-B3 variant A330_12R/GpL16-k0 (antibody, human IgG1, kappa, He Ab: anti-glypican 3 IgG1 heterodimer, only the GpH7-B3 chain mutated; position in EU numbering; also called He Ab) heavy 1: not shown heavy 2: not shown light: DIVMTQSPLSLPVTPGEPASISCQASESLVHSNRNTYLHWYLQKPGQSPQLLIYKVSNRFSGVPDRFSGSGSGTDFTLKISRVEAEDVGVYYCSQNTHVPPTFGQGTKVEIERTVAAPSVFIFPPSDEQLKSGTASVVCLLNNFYPREAKVQWKVDNALQSGNSQESVTEQDSKDSTYSLSSTLTLSKADYEKHKVYACEVTHQGLSSPVTKSFNRGEC | 116% | 95.8% | 77.3% | 103% | 116% |
| GpH7-A5/GpH7-B3 variant A330_15Y/GpL16-k0 (antibody, human IgG1, kappa, He Ab: anti-glypican 3 IgG1 heterodimer, only the GpH7-B3 chain mutated; position in EU numbering; also called He Ab) heavy 1: not shown heavy 2: not shown light: DIVMTQSPLSLPVTPGEPASISCQASESLVHSNRNTYLHWYLQKPGQSPQLLIYKVSNRFSGVPDRFSGSGSGTDFTLKISRVEAEDVGVYYCSQNTHVPPTFGQGTKVEIERTVAAPSVFIFPPSDEQLKSGTASVVCLLNNFYPREAKVQWKVDNALQSGNSQESVTEQDSKDSTYSLSSTLTLSKADYEKHKVYACEVTHQGLSSPVTKSFNRGEC | 106% | 107% | 122% | 108% | 114% |

More lines, now with the values ahead:

| He/Con 2aH [1] | He/Con 2b [2] | He/Con 3a [3] | He/Con 1a [4] | He/Con 2aR [5] | Binder |
| --- | --- | --- | --- | --- | --- |
| 108% | 115% | 89.3% | 106% | 104% | GpH7-A5/GpH7-B3 variant I332_04F/GpL16-k0 (antibody, human IgG1, kappa, He Ab: anti-glypican 3 IgG1 heterodimer, only the GpH7-B3 chain mutated; position in EU numbering; also called He Ab) heavy 1: not shown heavy 2: not shown light: DIVMTQSPLSLPVTPGEPASISCQASESLVHSNRNTYLHWYLQKPGQSPQLLIYKVSNRFSGVPDRFSGSGSGTDFTLKISRVEAEDVGVYYCSQNTHVPPTFGQGTKVEIERTVAAPSVFIFPPSDEQLKSGTASVVCLLNNFYPREAKVQWKVDNALQSGNSQESVTEQDSKDSTYSLSSTLTLSKADYEKHKVYACEVTHQGLSSPVTKSFNRGEC |
| 108% | 89.5% | 85.2% | 100% | 87% | GpH7-A5/GpH7-B3 variant I332_03V/GpL16-k0 (antibody, human IgG1, kappa, He Ab: anti-glypican 3 IgG1 heterodimer, only the GpH7-B3 chain mutated; position in EU numbering; also called He Ab) heavy 1: not shown heavy 2: not shown light: DIVMTQSPLSLPVTPGEPASISCQASESLVHSNRNTYLHWYLQKPGQSPQLLIYKVSNRFSGVPDRFSGSGSGTDFTLKISRVEAEDVGVYYCSQNTHVPPTFGQGTKVEIERTVAAPSVFIFPPSDEQLKSGTASVVCLLNNFYPREAKVQWKVDNALQSGNSQESVTEQDSKDSTYSLSSTLTLSKADYEKHKVYACEVTHQGLSSPVTKSFNRGEC |
| 110% | 98.2% | 76.2% | 91.4% | 118% | GpH7-A5/GpH7-B3 variant E333_18N/GpL16-k0 (antibody, human IgG1, kappa, He Ab: anti-glypican 3 IgG1 heterodimer, only the GpH7-B3 chain mutated; position in EU numbering; also called He Ab) heavy 1: not shown heavy 2: not shown light: DIVMTQSPLSLPVTPGEPASISCQASESLVHSNRNTYLHWYLQKPGQSPQLLIYKVSNRFSGVPDRFSGSGSGTDFTLKISRVEAEDVGVYYCSQNTHVPPTFGQGTKVEIERTVAAPSVFIFPPSDEQLKSGTASVVCLLNNFYPREAKVQWKVDNALQSGNSQESVTEQDSKDSTYSLSSTLTLSKADYEKHKVYACEVTHQGLSSPVTKSFNRGEC |
| 115% | 114% | 103% | 100% | 96.9% | GpH7-A5/GpH7-B3 variant I332_02A/GpL16-k0 (antibody, human IgG1, kappa, He Ab: anti-glypican 3 IgG1 heterodimer, only the GpH7-B3 chain mutated; position in EU numbering; also called He Ab) heavy 1: not shown heavy 2: not shown light: DIVMTQSPLSLPVTPGEPASISCQASESLVHSNRNTYLHWYLQKPGQSPQLLIYKVSNRFSGVPDRFSGSGSGTDFTLKISRVEAEDVGVYYCSQNTHVPPTFGQGTKVEIERTVAAPSVFIFPPSDEQLKSGTASVVCLLNNFYPREAKVQWKVDNALQSGNSQESVTEQDSKDSTYSLSSTLTLSKADYEKHKVYACEVTHQGLSSPVTKSFNRGEC |
| 110% | 104% | 92.2% | 96.7% | 127% | GpH7-A5/GpH7-B3 variant E333_12R/GpL16-k0 (antibody, human IgG1, kappa, He Ab: anti-glypican 3 IgG1 heterodimer, only the GpH7-B3 chain mutated; position in EU numbering; also called He Ab) heavy 1: not shown heavy 2: not shown light: DIVMTQSPLSLPVTPGEPASISCQASESLVHSNRNTYLHWYLQKPGQSPQLLIYKVSNRFSGVPDRFSGSGSGTDFTLKISRVEAEDVGVYYCSQNTHVPPTFGQGTKVEIERTVAAPSVFIFPPSDEQLKSGTASVVCLLNNFYPREAKVQWKVDNALQSGNSQESVTEQDSKDSTYSLSSTLTLSKADYEKHKVYACEVTHQGLSSPVTKSFNRGEC |
| 110% | 103% | 86.3% | 109% | 117% | GpH7-A5/GpH7-B3 variant A330_19Q/GpL16-k0 (antibody, human IgG1, kappa, He Ab: anti-glypican 3 IgG1 heterodimer, only the GpH7-B3 chain mutated; position in EU numbering; also called He Ab) heavy 1: not shown heavy 2: not shown light: DIVMTQSPLSLPVTPGEPASISCQASESLVHSNRNTYLHWYLQKPGQSPQLLIYKVSNRFSGVPDRFSGSGSGTDFTLKISRVEAEDVGVYYCSQNTHVPPTFGQGTKVEIERTVAAPSVFIFPPSDEQLKSGTASVVCLLNNFYPREAKVQWKVDNALQSGNSQESVTEQDSKDSTYSLSSTLTLSKADYEKHKVYACEVTHQGLSSPVTKSFNRGEC |
| 88.3% | 71.9% | 67.3% | 110% | 91% | GpH7-A5/GpH7-B3 variant A330_18N/GpL16-k0 (antibody, human IgG1, kappa, He Ab: anti-glypican 3 IgG1 heterodimer, only the GpH7-B3 chain mutated; position in EU numbering; also called He Ab) heavy 1: not shown heavy 2: not shown light: DIVMTQSPLSLPVTPGEPASISCQASESLVHSNRNTYLHWYLQKPGQSPQLLIYKVSNRFSGVPDRFSGSGSGTDFTLKISRVEAEDVGVYYCSQNTHVPPTFGQGTKVEIERTVAAPSVFIFPPSDEQLKSGTASVVCLLNNFYPREAKVQWKVDNALQSGNSQESVTEQDSKDSTYSLSSTLTLSKADYEKHKVYACEVTHQGLSSPVTKSFNRGEC |
| 93.8% | 86% | 102% | 111% | 97.6% | GpH7-A5/GpH7-B3 variant A330_20W/GpL16-k0 (antibody, human IgG1, kappa, He Ab: anti-glypican 3 IgG1 heterodimer, only the GpH7-B3 chain mutated; position in EU numbering; also called He Ab) heavy 1: not shown heavy 2: not shown light: DIVMTQSPLSLPVTPGEPASISCQASESLVHSNRNTYLHWYLQKPGQSPQLLIYKVSNRFSGVPDRFSGSGSGTDFTLKISRVEAEDVGVYYCSQNTHVPPTFGQGTKVEIERTVAAPSVFIFPPSDEQLKSGTASVVCLLNNFYPREAKVQWKVDNALQSGNSQESVTEQDSKDSTYSLSSTLTLSKADYEKHKVYACEVTHQGLSSPVTKSFNRGEC |
